# Laboratory results: IntAct's records for PubMed 17721515
# B1: Focal adhesion kinase 1 (Gallus gallus (Chicken)), Q00944 (parent)
# chain: MAAAYLDPNLNHTPSSSAKTHLGTGMERSPGAMERVLKVFHYFENSSEPTTWASIIRHGDATDVRGIIQKIVDCHKVKNVACYGLRLSHLQSEEVHWLHLDMGVSNVREKFELAHPPEEWKYELRIRYLPKGFLNQFTEDKPTLNFFYQQVKNDYMLEIADQVDQEIALKLGCLEIRRSYGEMRGNALEKKSNYEVLEKDVGLRRFFPKSLLDSVKAKTLRKLIQQTFRQFANLNREESILKFFEILSPVYRFDKECFKCALGSSWIISVELAIGPEEGISYLTDKGANPTHLADFNQVQTIQYSNSEDKDRKGMLQLKIAGAPEPLTVTAPSLTIAENMADLIDGYCRLVNGATQSFIIRPQKEGERALPSIPKLANNEKQGVRSHTVSVSETDDYAEIIDEEDTYTMPSTRDYEIQRERIELGRCIGEGQFGDVHQGIYMSPENPAMAVAIKTCKNCTSDSVREKFLQEALTMRQFDHPHIVKLIGVITENPVWIIMELCTLGELRSFLQVRKFSLDLASLILYAYQLSTALAYLESKRFVHRDIAARNVLVSATDCVKLGDFGLSRYMEDSTYYKASKGKLPIKWMAPESINFRRFTSASDVWMFGVCMWEILMHGVKPFQGVKNNDVIGRIENGERLPMPPNCPPTLYSLMTKCWAYDPSRRPRFTELKAQLSTILEEEKLQQEERMRMESRRQVTVSWDSGGSDEAPPKPSRPGYPSPRSSEGFYPSPQHMVQPNHYQVSGYSGSHGIPAMAGSIYPGQASLLDQTDSWNHRPQEVSAWQPNMEDSGTLDVRGMGQVLPTHLMEERLIRQQQEMEEDQRWLEKEERFLVMKPDVRLSRGSIEREDGGLQGPAGNQHIYQPVGKPDHAAPPKKPPRPGAPHLGSLASLNSPVDSYNEGVKIKPQEISPPPTANLDRSNDKVYENVTGLVKAVIEMSSKIQPAPPEEYVPMVKEVGLALRTLLATVDESLPVLPASTHREIEMAQKLLNSDLAELINKMKLAQQYVMTSLQQEYKKQMLTAAHALAVDAKNLLDVIDQARLKMISQSRPH
# Variants of: B1
# Details: with arp3_bovin ACTR3, P61157
row,Variant,effect of a mutation on the interaction
1,Y397F,increasing interaction
